Biological target: the molecule itself
Test: SEC

B1: GYINVG-ZYG11B485-728 fusion protein (other)
chain: GYINVGAQLGTELFIVRQLLQIVKQKTNQNSVDTTLKFTLSALWNLTDESPTTCRHFIENQGLELFMRVLESFPTESSIQQKVLGLLNNIAEVQELHSELMWKDFIDHISSLLHSVEVEVSYFAAGIIAHLISRGEQAWTLSRSQRNSLLDDLHSAILKWPTPECEMVAYRSFNPFFPLLGCFTTPGVQLWAVWAMQHVCSKNPSRYCSMLIEEGGLQHLYNIKDHEHTDPHVQQIAVAILDSLEKHIVR
  stoichiometry N: 2

— publication PMC9121654 (Biochemical and Biophysical Research Communications, 2022)
